# Data: patent publication US20150359864A1, “PHARMACEUTICAL COMPOSITION CONTAINING PEPTIDES” (ONCOTHERAPY SCIENCE, INC., priority 2012, published 2015)
# How the values were obtained:
# [1] = Combination peptide injection preparation using arginine solution (Example 4); assay type: physicochemical; design: key to Dissolution on successive addition, Example 4-1 (Arg) (1 mg each) / Dissolution on successive addition, Example 4-2 (Arg) (2 mg each): ◯: Dissolved; X: White Turbid; conditions: for Dissolution on successive addition, Example 4-1 (Arg) (1 mg each): 1 mg each peptide added one after another to 1 ml arginine solvent
# Protocol: In order to prepare an injection preparation containing combination of the peptides shown in Table 1, the 10 types of peptides shown in Table 1 were added in an amount of 1 mg each to 1 ml of the injection solvent containing arginine as used in Example 2. The entire amount of one peptide was dissolved upon addition thereof to obtain a colorless and clear solution, and another peptide was then added thereto.
# Subsequently, preparation of another injection preparation containing combination of the peptides was attempted in the same manner as described above, except that the amount of each peptide added was changed to 2 mg. […] Thus, no other peptides were added thereafter.
# [2] = Preparation of single peptide injection preparations using injection solvent (Comparative Example 1); conditions: for Whether injection preparation could be prepared (in words): 2 mg to 20 mg peptide in 1 ml injection solvent; for Peptide concentration at which injection preparation could be prepared, Comparative Example 1 (injection solvent): injection solvent (water), room temperature
# Protocol: Pharmaceutical water defined by the Japanese Pharmacopoeia was used as an injection solvent.
# In order to prepare formulations containing one of the peptides shown in Table 1, each of the peptides shown in Table 1 were added to 1 ml of an injection solvent. The resultants were agitated at room temperature so as to dissolve the entire amounts of the peptides added, and thereby colorless and clear solutions of each peptide were obtained. Thereafter, the peptide solutions were sterilized via filtration (with the use of a 0.22-μm filter) to obtain injection preparations.
# The amounts of peptides added varied within the range of 2 mg to 20 mg, and injection preparations were prepared at each concentration. […] For these peptides, peptide concentrations that enable preparation of injection preparations were investigated.
# [3] = Preparation of single peptide injection preparations using arginine solution (Example 2); assay type: physicochemical; conditions: for Whether injection preparation could be prepared (in words): 5 mg to 20 mg peptide in 1 ml injection solvent containing arginine; for Peptide concentration at which injection preparation could be prepared, Example 2 (Arg): 40 mg L-arginine in 1 ml injection solvent, class symbol; for pH of injection preparation, Example 2 (Arg): injection solvent containing arginine
# Protocol: 40 mg of L-arginine was dissolved in 1 ml of an injection solvent to obtain an injection solvent containing arginine. In order to prepare formulations of each peptide that was not dissolved in an injection solvent in Comparative Example 1, Peptides 1, 2, 4, 7, and 10 were separately added to 1 ml of injection solvents containing arginine.
# In the case of Peptide 1, it was confirmed that the injection preparation could be obtained with the addition of 6 mg of peptide at the maximum. All the obtained injection preparations had pH levels within adequate range for injection (Table 2).
# [4] = Preparation of single peptide injection preparations using sodium carbonate solution (Example 1); assay type: physicochemical; conditions: for Whether injection preparation could be prepared (in words): 5 mg to 20 mg peptide in 1 ml injection solvent containing sodium carbonate; for Peptide concentration at which injection preparation could be prepared, Example 1 (Na2CO3): 41 mg sodium carbonate decahydrate in 1 ml injection solvent, class symbol; for pH of injection preparation, Example 1 (Na2CO3): injection solvent containing sodium carbonate
# Protocol: 41 mg of sodium carbonate decahydrate (Na2CO3.10H2O) was dissolved in 1 ml of an injection solvent to obtain an injection solvent containing sodium carbonate. In order to prepare formulations of the each peptide that was not dissolved in an injection solvent in Comparative Example 1, Peptides 1, 2, 4, 7, and 10 were separately added to 1 ml of injection solvents containing sodium carbonate.
# In the case of Peptide 1, it was confirmed that the injection preparation could be obtained with the addition of 9 mg of peptide at the maximum. All the obtained injection preparations had pH levels within adequate range for injection (Table 2).
# [5] = Preparation of injection preparations using sodium carbonate/arginine solution (Example 3); assay type: physicochemical; conditions: for Peptide concentration at which injection preparation could be prepared, Example 3 (Na2CO3/Arg): 41 mg sodium carbonate decahydrate and 40 mg L-arginine in 1 ml injection solvent; for pH of injection preparation, Example 3 (Na2CO3/Arg): injection solvent containing sodium carbonate and arginine
# Protocol: 41 mg of sodium carbonate decahydrate and 40 mg of L-arginine were dissolved in 1 ml of an injection solvent to obtain an injection solvent containing sodium carbonate and arginine.
# In the case of Peptide 3, it was confirmed that the injection preparation could be obtained with the addition of 15 mg of peptide at the maximum. All the obtained injection preparations had pH levels within adequate range for injection (Table 2).
# [6] = Combination peptide injection preparation using sodium carbonate/arginine solution (Example 6); assay type: physicochemical; design: key to Dissolution on successive addition, Example 6 (Na2CO3/Arg) (2 mg each) / Dissolution of further 2 mg of Peptide 2, Example 6 (Na2CO3/Arg): ◯: Dissolved; X: White Turbid; conditions: 2 mg each peptide added one after another to 1 ml sodium carbonate/arginine solvent
# Protocol: (§1) In order to prepare an injection preparation containing combination of the peptides shown in Table 1, the 10 types of peptides shown in Table 1 were added in an amount of 2 mg each to 1 ml of the injection solvent containing sodium carbonate and arginine as used in Example 3. The addition of each peptide was conducted in the same manner as in Example 4.
# [7] = Combination peptide injection preparation using sodium carbonate solution (Example 5); assay type: physicochemical; design: key to Dissolution on successive addition, Example 5 (Na2CO3) (2 mg each) / Dissolution of further 2 mg of Peptide 2, Example 5 (Na2CO3): ◯: Dissolved; X: White Turbid; conditions: 2 mg each peptide added one after another to 1 ml sodium carbonate solvent
# Protocol: as §1, with “carbonate” for “carbonate and arginine”, “1.” for “3.”
# [8] = Stability of lyophilized formulation, peptide content in the vial by HPLC (Example 7); assay type: physicochemical; conditions: 25 degrees C., humidity 60%, relative to comparative solution peak area = 100%
# Protocol: 107.7 g of L-arginine and 110.4 g of sodium carbonate hydrate were dissolved in 5,500 ml of an injection solvent. Peptide 1, Peptide 2, Peptide 3, and Peptide 4 were dissolved therein in amounts of 6.2 g, 7.5 g, 8.7 g, and 8.0 g, respectively. Thereafter, the total amount of the solution was adjusted to 7,000 ml with the addition of an injection solvent, and a combination peptide solution was obtained. […] Following lyophilization, the vial was fully stoppered and the aluminum cap seaming was conducted. Thus, a lyophilized formulation was produced.
# Further, the results shown above were subjected to regression analysis, so as to predict stability 24 months later.
Sequence,"Dissolution on successive addition, Example 4-1 (Arg) (1 mg each) [1]",Whether injection preparation could be prepared (in words) [2],"Peptide concentration at which injection preparation could be prepared, Comparative Example 1 (injection solvent) ([2]; class symbol)","Peptide concentration at which injection preparation could be prepared, Example 3 (Na2CO3/Arg) ([5]; class symbol)","pH of injection preparation, Example 3 (Na2CO3/Arg) [5]","Dissolution on successive addition, Example 6 (Na2CO3/Arg) (2 mg each) [6]","Dissolution on successive addition, Example 5 (Na2CO3) (2 mg each) [7]",other results
DYLNEWGSRF (T cell epitope) [Peptide 10],◯,not possible to prepare the injection preparations regardless of the amounts of peptides added,X (0.08 mg/ml or less),⊚ (20 mg/ml or more),10.14,◯,◯,"Whether injection preparation could be prepared (in words) [3]: possible to prepare the injection preparations regardless of the amounts of peptides added; Peptide concentration at which injection preparation could be prepared, Example 2 (Arg) [3]: ⊚ (20 mg/ml or more); pH of injection preparation, Example 2 (Arg) [3]: 9.87; Whether injection preparation could be prepared (in words) [4]: possible to prepare the injection preparations regardless of the amounts of peptides added; Peptide concentration at which injection preparation could be prepared, Example 1 (Na2CO3) [4]: ⊚ (20 mg/ml or more); pH of injection preparation, Example 1 (Na2CO3) [4]: 9.35"
EYCPGGNLP (EYCPGGNLF; T cell epitope) [Peptide 8],◯,possible to prepare the injection preparations regardless of the amounts of peptides added,⊚ (20 mg/ml or more),⊚ (20 mg/ml or more),9.80,◯,◯,
KVYLRVRPLL (T cell epitope) [Peptide 3],◯,possible to prepare the injection preparations regardless of the amounts of peptides added,⊚ (20 mg/ml or more),,,◯,◯,"Peptide content in the vial, 0 months [8]: 103.7%; Peptide content in the vial, 1 month [8]: 103.4%; Peptide content in the vial, 3 months [8]: 102.7%; Peptide content in the vial, 6 months [8]: 100.1%; Dissolution on successive addition (in words), Example 4 ([1]; 2 mg each in 1 ml arginine solvent, added after Peptide 1 and Peptide 2): white turbidity; Dissolution on successive addition, Example 4-2 (Arg) (2 mg each) ([1]; 2 mg each peptide added one after another to 1 ml arginine solvent): X; Peptide concentration at which injection preparation could be prepared, Example 3 (Na2CO3/Arg) ([5]; numeric): 15 mg/mL; Maximum amount of peptide added that gave an injection preparation ([5]; in 1 ml injection solvent containing sodium carbonate and arginine): 15 mg"
RFVPDGNRI (T cell epitope) [Peptide 6],◯,possible to prepare the injection preparations regardless of the amounts of peptides added,⊚ (20 mg/ml or more),⊚ (20 mg/ml or more),10.55,◯,◯,
RYCNLEGPPI (T cell epitope) [Peptide 5],◯,possible to prepare the injection preparations regardless of the amounts of peptides added,⊚ (20 mg/ml or more),⊚ (20 mg/ml or more),10.20,◯,◯,
SYRNEIAYL (T cell epitope) [Peptide 7],◯,not possible to prepare the injection preparations regardless of the amounts of peptides added,,⊚ (20 mg/ml or more),9.97,◯,◯,"Peptide concentration at which injection preparation could be prepared, Comparative Example 1 (injection solvent) ([2]; numeric): 0.5 mg/mL; Whether injection preparation could be prepared (in words) [3]: possible to prepare the injection preparations regardless of the amounts of peptides added; Peptide concentration at which injection preparation could be prepared, Example 2 (Arg) [3]: ⊚ (20 mg/ml or more); pH of injection preparation, Example 2 (Arg) [3]: 9.68; Whether injection preparation could be prepared (in words) [4]: possible to prepare the injection preparations regardless of the amounts of peptides added; Peptide concentration at which injection preparation could be prepared, Example 1 (Na2CO3) [4]: ⊚ (20 mg/ml or more); pH of injection preparation, Example 1 (Na2CO3) [4]: 9.18"
VYGIRLEHF (T cell epitope) [Peptide 9],◯,possible to prepare the injection preparations regardless of the amounts of peptides added,⊚ (20 mg/ml or more),⊚ (20 mg/ml or more),9.84,◯,◯,
